What follows are sequences tested against HLA-A*02:01 (assay: IEDB peptide-MHC binding, purified MHC/competitive/radioactivity; ≥ and ≤ were set here for values at or beyond the usual limits of such assays). Settings: source organism: Vaccinia virus WR.

Sequence | IC50
LIQEIVHEV | 33 nM
FLYNVYPGA | 1.3 nM
KLFYVYYNL | 0.49 nM
FTDASTVASA | 793 nM
RTLLGLILFV | 20 nM
VLMEAQQGI | 7.1 nM
RIIDSEVVV | 94 nM
SIINRDIIVI | 826 nM
LLSLLVIWI | 148 nM
KIFETIYYGA | 604 nM
LIVLFEVFVV | 2070 nM
KVHGLDVKNV | 1900 nM
VLEYIYGGKT | 1440 nM
SLFSLLLVI | 5.8 nM
RLLDDLVIV | 0.65 nM
SVVVPIKFIA | 4060 nM
TVIHLEWLL | 5.6 nM
SQMTSTFIM | 85 nM
VLYNGVNYL | 0.25 nM
SMFLMTATL | 2.3 nM
MVISLLSMI | 155 nM
KLMGTITLNA | 12 nM
KTFKDESIFI | 93 nM
YVLLHLLVV | 101 nM
FQYLLPGFVL | 37 nM
TAIFTDASTV | 4460 nM

Sequence | IC50
LITWLIDYV | 71 nM
FVNDLMTMNI | 178 nM
FLPIIFDAFL | 0.22 nM
ILGMLFSDRV | 17 nM
FICWHSSEI | 53 nM
FVIVIYIFTV | 122 nM
IVEVPEDGI | 2450 nM
YLKIGTLLV | 17 nM
RINDDSKSIL | 4360 nM
YLVNAIIDSA | 134 nM
LTFWQIDYL | 7.3 nM
TLYDFDYYII | 5.8 nM
YTALHYYYL | 17 nM
RVYKTIWEI | 285 nM
LLFDRDTFYI | 0.4 nM
HLPTMYDGL | 1090 nM
FLTLLGIGCV | 0.29 nM
NLYDDNDIRT | 40 nM
PMLYQLLEAV | 1090 nM
FLSYISDTV | 0.54 nM
FLLFLEITYT | 6.9 nM
LLVAPMPTA | 13 nM
SIRLELVNLI | 2170 nM
MLNFSIYSV | 0.15 nM
SMVISLLSMI | 79 nM
RLYDLTRYA | 4 nM

Sequence | IC50
YLKEYIPKA | 1.7 nM
IVLSNTSTAV | 725 nM
ILSDDMLNI | 7.6 nM
RIDMIDNLNI | 2550 nM
LMSNIKTMMI | 1560 nM
TLRHIIGLLM | 748 nM
FAVQTIVFI | 96 nM
YLVPNVIGGV | 0.61 nM
ALQNVMISI | 440 nM
VMTPSPFYTV | 26 nM
FLSRLVLYA | 0.075 nM
SLQTCAGVI | 2850 nM
YQMLLALVAL | 1.5 nM
LLFLVCFPST | 413 nM
VVCNDLYKV | 174 nM
KMIPLLFIL | 2.9 nM
STYWVIPWEL | 76 nM
SLYDQKEINA | 267 nM
AIIPLSASV | 14 nM
FIALWIPDL | 1.7 nM
NIWAIIPLSA | 87 nM
TLLCVLPAV | 1 nM
VLITMLSIIL | 124 nM
IIVALTIMGV | 216 nM
LMSTLLIYL | 0.13 nM
EVVDMLSTYL | 1780 nM

Sequence | IC50
YVHGDTYSL | 71 nM
YIIRYPVKRI | 1020 nM
TIDGRIVTL | 2170 nM
ELKETLLHV | 4330 nM
FLIVRLNQCM | 34 nM
IVWEKKSLV | 2.1 nM
IMEYHLLFA | 13 nM
AITDAAVAV | 1480 nM
NLVKLSSYHV | 1420 nM
YMFFVIKNL | 21 nM
VTLLCVLPAV | 3.8 nM
ILMDSIFVST | 45 nM
SLDSLVHLL | 3.3 nM
RVQSFKINI | 769 nM
LVVDNGELM | 3600 nM
LTREMGFLV | 2360 nM
ILTLDIFYL | 1.3 nM
SQEVRKYFCV | 1200 nM
VMKLFTISV | 8 nM
FMLPKQDIV | 4.9 nM
SIFINKLNGA | 1820 nM
SLTNEIYASI | 161 nM
RLSLNRTIV | 849 nM
ILMDNKGLGV | 1.3 nM
SQYYFSMLV | 13 nM
FIDSNEYEV | 0.98 nM

Sequence | IC50
KTSTLIFFV | 1 nM
YANCSSISI | 901 nM
KIFIDNIYIV | 522 nM
PLYEVNSTMT | 3420 nM
SMITMSAFL | 20 nM
FILIFNIIV | 3.2 nM
TAYEINNEL | 925 nM
LLSLFSTLV | 12 nM
LTIMGVIFL | 608 nM
IMFKDDNIIM | 141 nM
KLLKMVTSV | 1.2 nM
AVLLTYFCFV | 3.4 nM
DLYDYITRI | 1030 nM
MLPKQDIVGL | 96 nM
CIDGKWNPV | 8.3 nM
LMGTITLNA | 173 nM
ILASIIDYV | 0.61 nM
RIDKTMKYI | 2660 nM
ILSAVAIFCI | 13 nM
QLYLTVSFI | 3280 nM
LLLLLFHSYA | 9.7 nM
FIKGFLYHT | 1320 nM
ILSNYVKTLL | 7.5 nM
ETYHLIDYET | 3180 nM
TMLMFIFTGI | 0.89 nM
YAVTKTDGI | 3060 nM
